The target in this assay is human SIRPα-isoform 2-his protein (human). The experiment in a line: indirect ELISA on coated human SIRPα-isoform 2-his, OD(450-630); negative control, curve not visible in the scan. (In an ELISA, binding on a coated surface is turned into a signal by an enzyme label.)
human SIRPα-isoform 2-his protein (human), sequence (chain, as listed by the source limits assumed): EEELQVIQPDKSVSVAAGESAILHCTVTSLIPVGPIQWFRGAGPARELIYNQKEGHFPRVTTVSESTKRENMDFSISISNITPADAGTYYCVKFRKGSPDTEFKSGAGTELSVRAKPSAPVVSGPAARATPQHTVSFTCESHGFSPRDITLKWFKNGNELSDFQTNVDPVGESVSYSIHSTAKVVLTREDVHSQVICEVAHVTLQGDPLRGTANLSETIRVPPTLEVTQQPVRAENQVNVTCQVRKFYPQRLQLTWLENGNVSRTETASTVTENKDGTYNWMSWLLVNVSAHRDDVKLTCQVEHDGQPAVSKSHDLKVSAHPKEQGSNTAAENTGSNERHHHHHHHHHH

hIgG (antibody) came in with an EC50 of 18.8 nM.

For orientation: EC50 means the concentration at which the effect is half-maximal. Read a low EC50 as higher potency in that assay.

The record behind these values is US20250250355A1.
